Assay results from the NTF2 design screens of Basanta et al. (2020).

Test: protease stability score; higher = more stable; yeast display proteolysis, trypsin and chymotrypsin;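 also: relative to predicted unfolded state with 0 unfolded-like and 1 meaning tenfold more protease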

Row | Sequence | protease stability score
1 | SSEEKRDKDAVELFLKILHTGNFELFRELFDPNTRWEYGDKELIGMELIVTWWFEFVRDRGVEVELHRIDRINGRVVLETTMRIGDKQTSTHVHVIVINGVFHEVRFRFH | 1.29
2 | SSHEEYMIRLVLQIIRLYLTGDEETIRKMADPNTYMKITIGDKDIEAHGREDVIRVREEIRKQIRIHHVDVTSIKVIDGRLVIHGILDGEYDGKRDEVDVRIEIIIVNGKWTSEHARVH | 1.05
3 | SSQEKFLKELVEIWVELWRTGNEEAFKRLADPDAKNDVNGVYSHGMENVEKLLKHFGIKHVEINDVKVQGDKVIMDGIIEFNGVTIKEHVEIVIVNGRFKELRIRRE | 0.788
4 | STEEEEAKKFSDIVLKAFDTGDEDLYRDLADPDTRSIINGVEKHGWKDIARHIKRIDHSDTHWDRVEMRVVNGQARVHVKGHIDVTIDGQRFVLRVTWHIIVTKIDGRWHLEELSLEVS | 1.31
5 | STEEEELRDYLEILDHLWKTGDFDRLLNLIDPHVRLEVNGREHHGMRWFETIIRKLGHDNISVHINNEKVHIVDGRAHWEGKKILIYDGRFHDFHTHLFFLKIDGKWKLKEVEYH | 1.26
6 | STEEREVYEWVHELLNAFNTGDEDFYYERMDPHVRFESQFNGKELDIVGREKVLKWTKTFWDDLGVDHSKLRSFRIQGDKLILHMEVTINGRHIQVDFFHVIVDGKLHSEEIRIH | 0.649
7 | STLEEHVFRMAYEIITDLETGDEEYYKKRADPDMYVHIRIGDKEVEIHGREHFIQWVKRLFEEIRIHWRIRDMHIVDGVYRFHTELEIRIGDKEHRIKSEVKVVVVNGKIKQLEIRIK | 2
8 | STREEETRRISDMIVKSLMTGDWRTFHDLLDPNVKVEINGKEMHGWKAWEDYIREMGIKVFDYHRIEVDENHLLMDGIDKVDGREHRSHYEITIIDGRIRRVEIRHK | 1.1
9 | SYHEKEALDLYRMTIHNYLTGDWKEWHRLFDPHVRIRIGDKELHGMENFAKWEEDLEKDLGVDHVEIRLRDMEVQGDKFTSDGELRLHIDGRTIRHKVEFHLEVINGRIKSHRINIH | 1.04
10 | TDDEEIWKIAIKMLRSAMHTGDEDTIKHLLDPNVRIEINGREIIGREIYAKHLREIRVDVERWEDHHIEVQGEFMHVKGRVVLTEEINGQEVREDVKLHVLVLKIDGQWRITSLYFR | 0.754
11 | TDDEREAVRFSEEVMHSFITGDEEHLDRLMDPNTKLTVNGKEIHGRQDVLEFIKRYRRELGVKYSEFVVHSVDDFDGRLRNNTELNINVDGKHIRLDTRVDMIKFNGRWQLHSIRFD | 1.44
12 | TDEDEAAELIIRLLEELHHTGDEDKLRDLMDPHVRMDIDGKDFHGRETYLEHLHHRLVNWGVDRIKVEIRLKHSEIQGEKLILETDWIVIFDGVRYEMKVRLILIKVNGRWVLKSSHFK | 1.32
13 | TDEDRELHEAAELLIESTWTGDFDFLLELLDPNVRLVINGKHDHGREDIWEVLRRLLERLGLDRVRVKIKHIDSFDGRLHLNINLNFNGRQFRYHYESYKVNGQWVVRRIEVREK | 1.89
14 | TDEEELAERLARIMIHLFLTGNEEIMSKLLDPDVRSWVNGQEFHGREEEAKVVRKMIEEWRFHDMHIHDVHVINGRLHVDSRVDNRVGDKTIDIRTELRFDVVNGRLKILEWHFT | 0.341
15 | TDEEELLHRILDEIEKALLTGDEDIIHRLFDPHVRFHVNGRHIVGRHEWSRWVNDHRKRFKNIQIRMRVEEKDVIDGRMHSRTKLHIIFNGVRYEITQEINIDVIDGRLKNVIVHDE | 0.725
16 | TDEEEMLRNFWHELIHALHTGDEELFEELADPDTRWYFENRVVIGRETVRNMIDELRIKEVRVERMRIQGDKFHAKLTQRGQINGREVNTETNLHVDIYNGRLKSVELRVK | 0.888
17 | TDEEKETEEHRKHFEHYERTGDWRELERLFDPNARLIIGDKILHGRELVTRWMFEFVKEMRINHIELHTMEIQGEKIHLDITVHVKFNGQERDIRVTEIHKKFDGRWTIEQIHFN | 1.46
18 | TDEEKSVEELLEKIEHANDTGDFELHKRLADPHVRVLVNGVELHGRHVLMEWLRELFERFKNVTFRLNLREVEFQGEWVFLRIELTVHVNGRTHHHDSIYIIHKVDGRWHITEVRFH | 1.34
19 | TDEKRDLDDWLHLLLHAIRTGDFRIEEKLADPNARLEFNGKEFIGMHHILNFLIEWRLHHMDIKHIEKQGDYLHIDSRLDVDFDGQRTILETHLVSLKINGRWILHSMSIG | 1.28
20 | TDERDRYKHFLHLFRHLIKTGDEDVLANNADPHVKFHIHIGDKEREHHGMESMVKIFKEWRIHHLHIESFDVQGDKLIALVHVDGIINGRHHSTTVNIILTFVNGREKEVNIHLT | 1.74
21 | TDKEEETKENAEKLTKHILTGNWEEFFNLADPNVRMHIQQGDKRINRHGREDAYHEYKDLERNLGIDHMHIKDIRVQGDWVHIHLEYRYGDKRFEVEIVLLIVDGRLTEVNVTIR | 1.09
22 | TDLEELFDYAIDLLRSLLLTGDEHMSVRLADPNTKLEVNGRYIHGREKFREWFRWFLEHLRFDHLHIHSVETQGDYAFMDSRVHLRYGDKVIEFITHQIVLKFDGRWYLHSMEIR | 0.587
23 | TDLKEYVERMLELLRKAIETGDETTLTKLVDPHVRLEVNGREFHGWKFWHMIVREIRMRDLELHHVEIQGDKMEVDGTLHLEINGKDDYRKVRLIAEKFDGRWVFTSVHFE | 1.72
24 | TDRHEIIIHRMKRLMLMELTGDEKLWERLVDPDVRIIFIFNGRRHEFHGREKALERLHDWWDHLRIDHLEVRRYDVINGRARTDMESHDTYDGQHYVIKFELVVQVIDGRVHSVEMIFK | 1.44
25 | TDVEEQVHVAIELHLRTLLTGDEHLSEKLADPHVRILIDGQDYHGRTEWVKWIHTFHKRVDHHQIDVTTLSVQGDKIRIHFELKLHVNGVDLRFHILLIIEKYNGVWIMSEVHIS | 1.67

Row | Sequence | protease stability score
26 | TEDDEHLEEEAEEYKEYVRTGDWKKIFELADPHTKIDIGNYKRHGMEDFLRDVIHVYTKLGVTIEHHVHDVRVINGRAHVNMEVRVHYGEKDERIKTTLIMRKVDGRWKLTSIHFK | 1.15
27 | TEDDEILREALEIWRYVEQTGDEEDTHRMVDPHAKMIFNGKEIHGREHISRWMKEIRIHELRVHSFRVIDGRLILEVELVGRFNGREDTIEVEIISEKVDGRWVVSSLTIR | 1.29
28 | TEDDELEKWATQLVKEVLETGDERLLENLADPNVRVEIGEKDSHGREEMLKDWKHMGIDHIHFEHSEFVGDFIDIHLVIHVNGKDLKQRIIILKIDGQWFLHSVHVE | 1.75
29 | TEDDELLHRAERLVYHSLLTGDFHTLKHLMDPHVRTHIDGRDTHGRDKATNFFIKYWEDLGVKHITYEDMHVHFFEGHLTVLLIVKLNIDGRERRNVYIFIFMKIDGKWLNHEVHIHIN | 0.651
30 | TEDDENAKMIMHLLYNHMKTGDFDTLVDMVDPHARNIIDGRELVGWEHFYRWLHELGFNHNELRVRDIKHFDGKVDVDVELILNVGDKHLRIRTTFIVRKVNGRWFIESIRLK | 1.38
31 | TEDDEWFNEILRLMVEAMKTGDEHILERLLDPHVRIEINGKEIHGREEFVERLEEQQRKFKGIRHELEIKHTEVINGRAHIDGRLHIDVNGRRKIYRVELVILKIDGRWSVEEIRIH | 1.67
32 | TEDDHKFEEAMRLWEHIEKTGDPHTASKMLDPNVRIYINGRELHGRHLFEHLEEHWLLELRLKHVQIQHIEVIDGRLEFDVEVNGQQGDKDIRMRVNVTVHKIDGRWFLKMVSFE | 0.705
33 | TEDDKDWEEIYKMLEHASKTGDERIFNKFIDPNTMSVVNGVDLIGMERWRNHWEHARFRHIEFRHVEIIDGRLDIQGHLRGEYNGREIRTDMRLIILKIDGRWIHKSFEFH | 0.944
34 | TEDDRAFELSMRKWLESHRTGDEKTMHELLDPNARYHIGEFHLHGWKEADRLVREIRIHHVEDKHVEIQGDKIRIHTRVDITINGQKSSVELELVLVKVNGVWFVHSVILR | 1.8
35 | TEDDRDFKLALELVEHHIKTGDEDDMSRLADPHVRIDDENETHHGREEFEEFVHRMIKRFKNIKWELKRTESQGDKIRIDFRIHVGDKTLRLIIIAEKVDGRWLIHTVIIN | 1.35
36 | TEDDRIFKEALELWVFAMNTGDERILFEMVDPHVRFVIGDKEYHGMEWRHKVLIELRIHRVRLEITHRDQFNGRIHIDGILQIDGEFNGRRDKTETEVRVTYTKFDGKWYYKEVIHL | 1.44
37 | TEDEDIFRHALEVWLRSFLTGNEEILNHLFDPHARVHIDGKNLHGMEMMVTHRQRHIEEARIRDSDIEHKNVIDGRIHIDIRVHGEVNGQEMDFNVTIIAMKVDGRWLIHSLHVE | 0.265
38 | TEDEDRLTEMIEELLHALLTGDEKRKDELIDPHTKLDVNGRERHGMEEIKKNWRKLGVERIDLRVRERRIVNGVAHIRGDLHVGDKSMEVHIVFVKVDGRWIVHSFFIH | 1.31
39 | TEDEDVLKEATRLFVEALKTGDWDHMRRLIDPNARVTQGDKEIHGMEDTVKIRRHLYEKWGVERVEMRIHDMEYQGDKLKVDMELQIGDKHKRIELVLRKVDGQWIIERIRYT | 0.528
40 | TEDEDYMHDATREFVTNVATGDEDRLRELMDPRTRHVYNGVRLHGRNLALEFWTHFRRELGVDHIEIRIRDLKFQGDYIHLHTEIVMDFNGVRIIYDTFVRVRKFNGQWMLQSSEIH | 0.194
41 | TEDEEAAERMIKTWLEKIITGNEEFLTEFMDPDTKVDINGKELHGWEDILQHLRHIRVHDMHVEIEDVRFINGVIEIRGTMHKDGEVNGRRTQTEQHVVFVLQKIDGRWRLRSYSIR | 2.27
42 | TEDEEAARRHTQEWIHAVRTGDEELLERMIDPEYKLDYNGVDIIGREEYIRIRSEQLQKFKNMRIEVRIHELRHQGDKIDLDVLIIEKWNGVTFRERSHLVILKFDGRWFIRFTSIK | 0.801
43 | TEDEEAFKENIRILLELTKTGDFKEMSKLLDPHVRIIINGKLFVGMEHADRLVRERNEEWRIESLEVEHLQSVDGQIHADTKMHVNINGVHRIHDTHQIVLKVNGRWFMEQIEIR | 1.01
44 | TEDEEDSLFAFDEWVKSVETGDEHTLSKLADPHTRLNVNGVDQHGRENMSHMMLRLANRYDHIEIRLHSWRLINGRIEVDSRVINVVGDKRIESNFHMFILKVNGRWLMHSVHFE | 0.847
45 | TEDEEFAFEIIRLFHEALLTGDEETLHHLVDPNARMQIGEFTTHGRSMVKFFNKRFDHWEMRVEFRRIHYIGDKVFVDTRIRILIEYNGRFIETSVEQRIVTRKIDGKWQITRLEIV | 1.05
46 | TEDEEISEKAFRYLVESLETGDEETDRHLADPHVRIVFEGRSYHGREQFHEIMSHIRVHHVEIRDVRVQGNKVDWDTQSKVEFNGRKYWVQTRIIVLKVDGRWILHSYILK | 0.708
47 | TEDEEKSHEFVHRLSHSVMTGDWKDIKRLADPNMKSRVNGREIHGWDKTKRMLDEEEEQLGVSRFEFDLKRVDTQGDKLFIDMRMKVNGRTLEVTYHVEKVNGRWLVTEFHIL | 0.555
48 | TEDEELAKLVSEILLHIMETGDEDKLSKMADPHVRVNINGRERHGWRNMVRVLHETIRNLGIEIKSVHIRDLKIQGDKIRVTMEIDYQQGDKRNEWSSHLIIIKIDGRWHLHAFELN | 1.26
49 | TEDEELIERYVRFFLKIMETGDEKLTERMMDPDARFEIGDKEEHGREAIYEWLSKIKNIRIKIHHIKIQGDKLHLDVRFHINGKEIEVEIVSKKIDGKWMVHSVIVK | 1.5
50 | TEDEELSHEIFEIWERVRRTGDEHTLERLADPNMRVHIDGQDYHGREMLFEFLNRFKGLKSDIHDMRIEIVGDYIILNIKVHITVNGREIHLTIHLHSRKFNGKWHLKELEIRKI | 1.32
